Results taken from patent US20180185450A1 (Sanofi, published 2018).
Numbered stars: 1 amine (or outer) side, 2 acyl side, 3 side chain; on linkers, the order of the positions; unused ones are H or OH. Square brackets hold non-standard residues; d marks the D form. Side chains are listed from the residue outwards. Ends that are not written are not given here. γGlu = O=C(O)[C@H](CCC(=O)[*:2])N[*:1]; X70 = not defined here; x53 = not defined here; x70 = not defined here; x76 = not defined here; Aib = CC(C)(N)C(=O)O

Experiments:
[1] = molecular target: human GLP-1 receptor (human, UniProt P43220 24-463); assay: cell-based or functional assay
[2] = molecular target: human glucagon receptor (human, UniProt P47871 26-477); assay: cell-based or functional assay
human glucagon receptor, sequence (P47871 26-477): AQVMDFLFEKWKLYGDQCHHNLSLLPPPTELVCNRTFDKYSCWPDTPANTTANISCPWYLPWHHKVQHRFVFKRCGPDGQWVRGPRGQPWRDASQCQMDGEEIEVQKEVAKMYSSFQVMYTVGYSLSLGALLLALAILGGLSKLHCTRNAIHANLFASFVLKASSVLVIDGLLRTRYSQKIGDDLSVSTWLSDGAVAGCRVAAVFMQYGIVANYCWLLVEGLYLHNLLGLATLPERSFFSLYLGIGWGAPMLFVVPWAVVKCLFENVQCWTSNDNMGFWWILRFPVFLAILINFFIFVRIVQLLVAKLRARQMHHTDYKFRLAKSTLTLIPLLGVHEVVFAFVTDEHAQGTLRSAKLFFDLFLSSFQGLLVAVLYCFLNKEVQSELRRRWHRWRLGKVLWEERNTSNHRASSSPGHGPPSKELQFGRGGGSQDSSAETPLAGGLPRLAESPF

Binder | EC50 hGLP-1R (cAMP) [1] | EC50 hGlucagon-R (cAMP) [2]
H[Aib]QGTFTSDLSKQK([γGlu-x76])ESRAAQLFIEWLKAGGPSSGAPPPS-NH2 (reading uncertain) [SEQ ID NO: 203] | 34.9 pM | 13.1 pM
H[Aib]QGTFTSDLSKQK([γGlu-x53])DSQAAQDFIEWLKAGGPSSGAPPPS-NH2 (reading uncertain) [SEQ ID NO: 155] | 2.5 pM | 25.1 pM
HXQGTFTSDLSKQKESRRAQDFIEWLKSGGPSSGAPPPS (dSer at 2; K(γE-x53) at 14; C-terminal NH2) [SEQ ID NO: 129] | 14.8 pM | 4.1 pM
HXQGTFTSDLSKQKESRAAQLFIEWLKAXGPSSGAPPPS (Aib at 2; K(γE-x76) at 14; dAla at 29; C-terminal NH2) [SEQ ID NO: 204] | 34.1 pM | 12.5 pM
HXQGTFTSDLSKQKDSKRAXDFIEWLKAGGPSSGAPPPS (dSer at 2; K(γE-x70) at 14; Aib at 20; C-terminal NH2) [SEQ ID NO: 196] | 7.8 pM | 1.8 pM
HXQGTFTSDLSKQKESXAAQLFIEWLKAGGPSSGAPPPS (dSer at 2; K(γE-x53) at 14; Aib at 17; C-terminal NH2) [SEQ ID NO: 15] | 6.6 pM | 176 pM
HXQGTFTSDLSKQKESXAAQLFIEWLKAGGPSSGAPPPS (dSer at 2; K(GABA-x70) at 14; Aib at 17; C-terminal NH2) [SEQ ID NO: 131] | 9.1 pM | 24.9 pM
HXQGTFTSDLSKQKEEEAAQDFIEWLKAGGPSSGAPPPS (dSer at 2; K(γE-x53) at 14; C-terminal NH2) [SEQ ID NO: 16] | 2.8 pM | 117 pM
HXQGTFTSDLSKQKDEQRAKDFIEWLKAXGPSSGAPPPS (Aib at 2; K(γE-x70) at 14; dAla at 29; C-terminal NH2) [SEQ ID NO: 199] | 10.1 pM | 7.2 pM
HXQGTFTSDLSKQKDEQRAKLFIEWLKAXGPSSGAPPPS (Aib at 2; K(γE-x70) at 14; dAla at 29; C-terminal NH2) [SEQ ID NO: 200] | 4.6 pM | 4.4 pM
H[Aib]QGTFTSDLSKQK([γGlu-x76])ESRAAQDFIEWLKAGGPSSGAPPPS-NH2 (reading uncertain) [SEQ ID NO: 202] | 26.2 pM | 6.9 pM
HXQGTFTSDLSKQKDSQAAQDFIEWLKRAGPSSGAPPPS (dSer at 2; K(γE-x53) at 14; C-terminal NH2) [SEQ ID NO: 124] | 3 pM | 8.4 pM
HXQGTFTSDLSKQKESRRAQDFIEWLKRGGPSSGAPPPS (dSer at 2; K(γE-x53) at 14; C-terminal NH2) [SEQ ID NO: 127] | 14.7 pM | 9.4 pM
HXQGTFTSDLSKQKDSKAAQDFIEWLKSGGPSSGAPPPS (dSer at 2; K(γE-x53) at 14; C-terminal NH2) [SEQ ID NO: 173] | 5.7 pM | 5.9 pM
HXQGTFTSDLSKQKDSKAAQDFIEWLKAGGPSSGAPPPS (dSer at 2; K(γE-γE-x53) at 14; C-terminal NH2) [SEQ ID NO: 140] | 1.3 pM | 1.5 pM
HXQGTFTSDLSKQKDSRRAQDFIEWLKSGGPSSGAPPPS (dSer at 2; K(γE-x53) at 14; C-terminal NH2) [SEQ ID NO: 128] | 6.2 pM | 1.6 pM
HXQGTFTSDLSKQKESRRAQDFIEWLKRXGPSSGAPPPS (dSer at 2; K(γE-x53) at 14; dAla at 29; C-terminal NH2) [SEQ ID NO: 126] | 6.6 pM | 6.8 pM
HXQGTFTSDLSKQKDSRRAQDFIEWLKAXGPSSGAPPPS (dSer at 2; K(γE-X70) at 14; dAla at 29; C-terminal NH2) [SEQ ID NO: 161] | 5 pM | 2.4 pM
HXQGTFTSDLSKQKESLAAQDFIEWLKAGGPSSGAPPPS (dSer at 2; K(γE-x53) at 14; C-terminal NH2) [SEQ ID NO: 150] | 6 pM | 35.5 pM
HXQGTFTSDLSKQKDSKAAQDFIEWLKAGGPSSGAPPPS (dSer at 2; K(γE-X95) at 14; C-terminal NH2) [SEQ ID NO: 142] | 4.1 pM | 2.1 pM
HXQGTFTSDLSKQKESXAAQDFIEWLKAGGPSSGAPPPS (dSer at 2; K(γE-x53) at 14; Aib at 17; C-terminal NH2) [SEQ ID NO: 14] | 4.6 pM | 94.7 pM
H[Aib]QGTFTSDLSKQK([γGlu-X70])DSQAAQDFIEWLKAGGPSSGAPPPS-NH2 (reading uncertain) [SEQ ID NO: 156] | 2.9 pM | 12.5 pM
H[Aib]QGTFTSDLSKQK([γGlu-X70])DEQRAKEFIEWLKSGGPSSGAPPPS-NH2 (reading uncertain) [SEQ ID NO: 174] | 2.6 pM | 1.9 pM
HXHGTFTSDLSKQKDSKAAQLFIEWLKAXGPSSGAPPPS (dSer at 2; K(γE-X70) at 14; dAla at 29; C-terminal NH2) [SEQ ID NO: 138] | 5.5 pM | 9.2 pM
HXQGTFTSDLSKQKDEQAAKLFIEWLKAXGPSSGAPPPS (Aib at 2; K(γE-x76) at 14; dAla at 29; C-terminal NH2) [SEQ ID NO: 201] | 22.7 pM | 29.6 pM
H[Aib]QGTFTSDLSKQK([γGlu-x70])DSRRAQLFIEWLKAGGPSSGAPPPS-NH2 (reading uncertain) [SEQ ID NO: 198] | 8.2 pM | 2.4 pM
H[Aib]QGTFTSDLSKQK([γGlu-X70])DEQRAKDFIEWLKSGGPSSGAPPPS-NH2 (reading uncertain) [SEQ ID NO: 175] | 2.5 pM | 3.1 pM
H[Aib]QGTFTSDLSKQK([γGlu-X70])DSRRAQDFIEWLKAGGPSSGAPPPS-NH2 (reading uncertain) [SEQ ID NO: 162] | 3.1 pM | 2.4 pM
H[Aib]QGTFTSDLSKQK([γGlu-X70])DEQRAKEFIEWLKAGGPSSGAPPPS-NH2 (reading uncertain) [SEQ ID NO: 152] | 3.2 pM | 2.3 pM
